{"source": "paper PMC8934638", "about": "“H3K36 methylation and DNA-binding both promote Ioc4 recruitment and Isw1b remodeler function”", "experiment_in_all_cases": "EMSA; EMSA; 15 fmol NCP (30 fmol unmodified NCP) per reaction; 5% native PAGE (37.5:1) in 0.4x TBE, 2% glycerol; binding buffer, pH and temperature not given (as in cited work)", "key": {"Ioc4 2KE": {"target": "T1, Ioc4 2KE (Saccharomyces cerevisiae, UniProt Q04213 1-475, K149E;K150E)", "T1 sequence": "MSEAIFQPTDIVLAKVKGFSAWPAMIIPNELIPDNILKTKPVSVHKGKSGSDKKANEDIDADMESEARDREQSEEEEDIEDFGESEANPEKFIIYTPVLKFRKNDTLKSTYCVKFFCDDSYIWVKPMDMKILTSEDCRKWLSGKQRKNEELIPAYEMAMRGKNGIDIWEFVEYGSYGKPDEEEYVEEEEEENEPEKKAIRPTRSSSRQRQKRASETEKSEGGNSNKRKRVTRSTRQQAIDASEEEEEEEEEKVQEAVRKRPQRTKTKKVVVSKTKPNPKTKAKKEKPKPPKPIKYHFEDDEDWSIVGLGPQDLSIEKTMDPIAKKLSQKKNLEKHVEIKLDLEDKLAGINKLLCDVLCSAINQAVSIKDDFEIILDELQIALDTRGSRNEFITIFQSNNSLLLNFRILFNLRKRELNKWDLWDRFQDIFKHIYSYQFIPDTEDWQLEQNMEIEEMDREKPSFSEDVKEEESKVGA", "settings": "protein: recombinant; tags: N-terminal 6xHis-MBP; label: Cy5 on sense strand; blunt"}, "Ioc4 PWWP 2KE": {"target": "T2, Ioc4 PWWP 2KE (Saccharomyces cerevisiae, UniProt Q04213 1-178, K149E;K150E)", "T2 sequence": "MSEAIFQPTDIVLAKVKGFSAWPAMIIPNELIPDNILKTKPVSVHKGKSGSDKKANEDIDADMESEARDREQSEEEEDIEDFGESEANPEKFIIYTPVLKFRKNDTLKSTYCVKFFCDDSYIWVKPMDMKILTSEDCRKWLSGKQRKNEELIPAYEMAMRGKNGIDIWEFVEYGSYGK", "settings": "protein: recombinant; tags: N-terminal 6xHis; label: Cy5 on sense strand; blunt"}, "Ioc4 dPWWP": {"target": "T3, Ioc4 dPWWP (Saccharomyces cerevisiae, UniProt Q04213 179-475, del1-178)", "T3 sequence": "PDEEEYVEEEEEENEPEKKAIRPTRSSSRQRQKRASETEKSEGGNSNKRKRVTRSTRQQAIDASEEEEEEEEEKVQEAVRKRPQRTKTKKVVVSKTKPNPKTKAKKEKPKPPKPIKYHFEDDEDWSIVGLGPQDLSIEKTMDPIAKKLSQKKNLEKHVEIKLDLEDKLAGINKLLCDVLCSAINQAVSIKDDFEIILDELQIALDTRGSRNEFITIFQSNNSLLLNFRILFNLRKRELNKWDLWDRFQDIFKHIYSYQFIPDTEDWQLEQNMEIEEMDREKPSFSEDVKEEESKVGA", "settings": "protein: recombinant; tags: N-terminal 6xHis-MBP; label: Cy5 on sense strand; blunt"}, "Ioc4 PWWP 2KA": {"target": "T4, Ioc4 PWWP 2KA (Saccharomyces cerevisiae, UniProt Q04213 1-178, K149A;K150A)", "T4 sequence": "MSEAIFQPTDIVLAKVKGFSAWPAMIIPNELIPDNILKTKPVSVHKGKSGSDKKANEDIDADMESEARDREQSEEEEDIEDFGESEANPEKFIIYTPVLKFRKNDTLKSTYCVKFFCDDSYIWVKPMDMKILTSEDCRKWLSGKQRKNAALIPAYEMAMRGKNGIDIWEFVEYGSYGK", "settings": "protein: recombinant; label: Cy5 on sense strand; blunt"}}, "data": [{"binder": "dsDNA 30 bp (601-derived EMSA probe) (dsDNA) DNA 1: GGCAAGGTCGCTGTTCAATACATGCACAGG DNA 2: CCTGTGCATGTATTGAACAGCGACCTTGCC", "values": [{"measurement": "Kd", "setting": "Ioc4 2KE", "value": 76, "unit": "nM"}, {"measurement": "binding result", "setting": "Ioc4 PWWP 2KE", "value": "no binding"}, {"measurement": "Kd", "setting": "Ioc4 dPWWP", "value": 121, "unit": "nM"}, {"measurement": "binding result", "setting": "Ioc4 PWWP 2KA", "value": "no binding"}]}]}
